Results as given in publication PMC8616692.

Target: 3CLpro (chymotrypsin-like cysteine protease, nsp5) of SARS-CoV-2, wild type (SARS-CoV-2)
Assay: SEC

3CLpro (chymotrypsin-like cysteine protease, nsp5) of SARS-CoV-2, wild type (enzyme)
stoichiometry N: 2
